Assay results reported in the nanobody polyreactivity screen of Harvey et al. (2022).

Assay: yeast display, Sf9 membrane polyspecificity reagent, FACS + sequencing; frameworks hold sequencing errors
How it was run: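 Nanobodies came from a synthetic yeast display library in Saccharomyces cerevisiae BJ5465, induced with galactose for 36–48 hours and stained for 1 hour at 4 °C with 10% biotinylated, detergent-solubilized Sf9 membrane reagent. Cells were enriched on streptavidin microbeads and then FACS-sorted, with low and high (top ~1%) gates set on anti-HA fluorescence for expression and streptavidin fluorescence for reagent binding. Each polyreactivity label reflects the gate a clone came from. Genes were amplified by colony PCR, sequenced by MiSeq 2 × 250 and filtered by CDR length.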

Sequence | polyreactivity (PSR sort gate)
QVQLVESGGGLVQAGGSLRLSCAASGSTFWIYAMGWYRPAPGKERELVAAITLRSGSTYYADSVKGRFTISRDNAKNTVYLQMNSLKPEDTAVYYCAKDYYGTYYAQYNYWGQGTQVTVSS | low polyreactivity
QVQLVESGGGLVQAGGSLRLSCAASGSTFWIYAMGWYRQAPGKERELVAAITLRSGSTYYADSVKGRFTISRDNAKNTVYLQMYSLKPEDTAVYYCATDSWGVDRPNYNYWGQGTQVTVSS | low polyreactivity
QVQLVESGGGLVQAGGSLRLSCAASGSTFWIYPMGWYRQAPGKERELVAAISNGDSTNYADSVKGRFTISRDNAKNTVYLQMNSLKPEDTAVYYCARQYRIFKTFKYDYWGQGTQVTVSS | low polyreactivity
QVQLVESGGGLVQAGGSLRLSCAASGSTFWKYAMGWYRQAPGKERELVASIRSGGSTYYADSVKGRFTISRDNAKNNVYLQMNSLKPEDTAVYYCNAMSRTVSHEADDYWGQGTQVTVSS | high polyreactivity
QVQLVESGGGLVQAGGSLRLSCAASGSTFWLNAMGWYRQAPGKERELVADISRSGGSTYYADSVKGRFTISRDNAKNTVYLQMNSLKPEDTAVYYCAADSWPDQFTVYPGGDYWGQGTQVTVSS | low polyreactivity
QVQLVESGGGLVQAGGSLRLSCAASGSTFWLYAMGRYRPAPGKERELVASISSRGGSTYYADSVKGRFTISRDNAKNTVYLQMNSLKPEDTAVYYCAAKDIRYDDDYWGQGTQVTVSS | low polyreactivity
QVQLVESGGGLVQAGGSLRLSCAASGSTFWLYAMGWYRQAPGKERELVAAIRSGDRTNYADSEKGRFTISRDNAKNTVYLQMNSLKPEDTAVYYCAAVAYLNWTPHYYWGQRTQVTVSS | low polyreactivity
QVQLVESGGGLVQAGGSLRLSCAASGSTFWPNAMGWYRQAPGKERELVAAISWSSSSGGRTYYADSVKGRFTISRDNAKNTVYLQMNSLKPEDTAVYYCNASYRDEDDYWGQGTQVTVSS | high polyreactivity
QVQLVESGGGLVQAGGSLRLSCAASGSTFWRYAMGWYRQAPGKERELVAAITRRGSSTYYADSVKGRFTISRDNAKNTVVLQMNSLKPEDTAVYYCAAPGYVRTGVTYGGYYWGQGTQVTVSS | high polyreactivity
QVQLVESGGGLVQAGGSLRLSCAASGSTFWSYAMGWYRQAPGKEREFVAAISSSDDSTYYADSVKGRFTISRDNAKNTVYLQMNSMKPEDTAVYYCATSWYIYPYDYWGQGTQVTVSS | low polyreactivity
QVQLVESGGGLVQAGGSLRLSCAASGSTFWSYAMGWYRQAPGKERELVAAISYRGTRTRYADSVKGRFTISRDNAKNTVYLQMNSLKPEDTAVYYCAADRTFYGIRFDYWGQGTQVTVSS | high polyreactivity
QVQLVESGGGLVQAGGSLRLSCAASGSTFWSYAMGWYRQAPGKERELVAVITGSDGRTFYADSVKGRFTISRDNAKNTVYFQINSLKPEDTAVYYCAADAVFRATRDDRSTSEDDYWGQGTQVTVSS | low polyreactivity
QVQLVESGGGLVQAGGSLRLSCAASGSTFWVYGMGWYRQAPGKERELVADITSIGGSTYYADSVKGRFTISRDNAKNTVYLQMNSLKPEDTAVYYCAARETWYPYYWMGYWGQGTQVTVSS | high polyreactivity
QVQLVESGGGLVQAGGSLRLSCAASGSTFWWKTMGWYRLAPGKERELVADIRTSGGGTYYADSVKGRFTISRDNAKNNVYLQMYSLKPEDTAVYYCNADPKWEMGSWGQGTQVTVSS | low polyreactivity
QVQLVESGGGLVQAGGSLRLSCAASGSTFWWYAMGWYRQAPGKERELVAAISYSGSSTYYADSVKGRFTISRDNAKNTVYLQMNSLKPEDTAVYYCAADIQYYYNFYPGDYWGQGTQVTVSS | low polyreactivity
QVQLVESGGGLVQAGGSLRLSCAASGSTFWYNAMGWYRQAPGKERELVAAISASGGSTYYADSVKGRFTISRDNAKNTVYLQMNSLKPEDTAVYYCAAGSFWGYSRYRTYYGFDYWGQGTQVTVSS | high polyreactivity
QVQLVESGGGLVQAGGSLRLSCAASGSTFWYYAMGWYRQAPGKEREFVAAINRSGASTYYADSVKGRFTISRDNAKNTVYLEMNSLKPEDTAVYYCAAAVYLQYLDDPTYGYWGQGTQVTVSS | high polyreactivity
QVQLVESGGGLVQAGGSLRLSCAASGSTFWYYAMGWYRQAPGKERELVASITYSGGSTYYADSVKGRFTISRDNAKNTVSLQMNSLKPEDTAVYYCAAEGYYSNYHYWGQGTQVTVSS | low polyreactivity
QVQLVESGGGLVQAGGSLRLSCAASGSTFWYYTMGWSRQAPGKERELVAGITSGGSTYYADSVKGRFTISRDNAKNTVYLQMNSLKPEDTAVYYCAKRYYGRGYYYWGQGTQVTVSS | high polyreactivity
QVQLVESGGGLVQAGGSLRLSCAASGSTFYAKAMGWYRQAPGKERELVATINRRGNTYYADSVKGRFTISRDNAKNTVYLQMNSLKPEDTAVYYCAADYRRYGSYDYWGQGTQVTVSS | low polyreactivity
QVQLVESGGGLVQAGGSLRLSCAASGSTFYANAMGWYRQAPGKDRELVAAITRSGAGTYYADSVKGRFTISRDNAKNTGYLQMNSLKPEDTAVYYCAKRTKTPTGYVWGGYDYWGQGTQVTGSS | high polyreactivity
QVQLVESGGGLVQAGGSLRLSCAASGSTFYANAMGWYRQAPGKERELVAVIRWSGGSTYYADSVKGRFTISRDNAKNTVYLQMNSLKPEDTAVYYCNADFYRVAYLRRYSHFDYWGQGTQVTVSS | high polyreactivity

Sequence | polyreactivity (PSR sort gate)
QVQLVESGGGLVQAGGSLRLSCAASGSTFYAYAMGWYRQAPGKERELVAAISSDGTNYADSVKGRFTISRDNAKNTVYLQMNSLKPEDTAVFYCAADLLLYSSQDNDYWGQGTQVTVSS | low polyreactivity
QVQLVESGGGLVQAGGSLRLSCAASGSTFYAYAMGWYRQAPGKERELVAVITSSGSTYYADSVKGRFTISRDNAKNTVYLQMNSLKPEDTAVYYCARVSYRGYGYWGQGTQVTVSS | high polyreactivity
QVQLVESGGGLVQAGGSLRLSCAASGSTFYAYAMGWYRQAPGKEWELVAAITYSGGTPYYADSVKGRFTISRDNAKNTVYLQMNSLKPEDTAVYYCAARYRGLTGHIDGYWGQGTQVTVSS | low polyreactivity
QVQLVESGGGLVQAGGSLRLSCAASGSTFYAYAMGWYRQAPGTERELVAAITTIGGRTYYADSVKGRFTISRDNAKNTVYLQMNSLKPEDTAVYYCAADIRSNRLYDGGYWGQGTQVTVSS | low polyreactivity
QVQLVESGGGLVQAGGSLRLSCAASGSTFYAYTMGWYRQAPGKERELVARISGRGGSTYYADSVKGRFTISRDIAKNTVYLQMNSLKPEDTAVYYCAARVYGTYRGIQYGYWGQGTQVTVSS | high polyreactivity
QVQLVESGGGLVQAGGSLRLSCAASGSTFYDNAKGWYRQAPGKERELVAGITESGGSTYYADSVKGRFTISRDNAKNTVYLQMNSLKPEDTAVYYCAAVYTYIPYLTYYYWGQGTQVTVSS | low polyreactivity
QVQLVESGGGLVQAGGSLRLSCAASGSTFYDNAMGWYRQAPGKERELVASIRSGGSTKYADSVKGRFTISRDNAKNTVYLQMNSLKPEDTAVYYCAADVHFVKDPPVKSIYGKFYYWGQGTQVTVSS | low polyreactivity
QVQLVESGGGLVQAGGSLRLSCAASGSTFYENTMGWYRQAPGKERELVAAISFRGGSTYYADSVKGRFTISRDNAKNTVYLQMNSLKPEETAVYYCAKEYYTVRLYDYWGQGTQVTVSS | low polyreactivity
QVQLVESGGGLVQAGGSLRLSCAASGSTFYEYAMGWYRQAPGKERELVAAISSGGSTYYADSVTGRFTISRDNAKNTVYLLMNSLKPEDTAVYYCNADCQTYCGEYDYWGQGTQVTVSS | low polyreactivity
QVQLVESGGGLVQAGGSLRLSCAASGSTFYFNAMGWYRQAPGKERELVATIRSGDSTYYADSVKGRFTISSDNAKNTVYLQMNSLKPVDTAVYSCPGPLPYYGQYDYWGQGTQVTVSS | low polyreactivity
QVQLVESGGGLVQAGGSLRLSCAASGSTFYFYAMGWYREAPGKERELVAAISKRGTSTYYADSVKGRFTISRDNAKNTVYLEMNSLKPEDTAVYFCAADAPRGYNYWGQGTQVTVSS | high polyreactivity
QVQLVESGGGLVQAGGSLRLSCAASGSTFYFYAMGWYRQAPGKERELVAVISSGGRTYYADSVKGRFTISRDNAKNTVYLQMNSLKPEDTAVYYCAASWPSSLTYYYWGQGTQVTVSS | low polyreactivity
QVQLVESGGGLVQAGGSLRLSCAASGSTFYGNAMGWYRQAPGKERELVAAITWGDASTYYADSVKGRFTISRDNAKNTVYLQMNSLKPEDTAVYYCAVDESYGSSSDMDYWGQGTQVTVSS | low polyreactivity
QVQLVESGGGLVQAGGSLRLSCAASGSTFYGNMGWYRQAPGKERELVAAITYRGTNTYYADSVKGRFTISRDNAKNTVYLQMNSLKPEDTAVYYCAAEYDVYQGRGRYYGYDYWGQGTQVTVSS | high polyreactivity
QVQLVESGGGLVQAGGSLRLSCAASGSTFYGYAMGWYRQAPGKERELVAAISSGASTYYADSVKGRFTISRDNAKNSVYLQMNSLKPEDTAVYYCAAYSYPKKYGYWGQGTQVTVSL | high polyreactivity
QVQLVESGGGLVQAGGSLRLSCAASGSTFYGYAMGWYRQAPGKERELVAAISSSATRTYYADSVKGRFTISRDNAKNTVYLQMNSLKPEDTAVYYCAAVSTLLYYHYYTRDYWGQGTQVTVSS | high polyreactivity
QVQLVESGGGLVQAGGSLRLSCAASGSTFYGYAMGWYRQAPGKERELVAAITRSGGSTYYADSVKGRFTISRDNAKNTVYLQMNSLIPEDTEVYYCNKDGYKGGVGYDYWGQGTQVTVSS | high polyreactivity
QVQLVESGGGLVQAGGSLRLSCAASGSTFYGYAMGWYRQAPGKERELVAVISRSGGGTSYADSVKGRFTISRDNAKNTVYLQMNSLKPEDTAVYYCNAAKYLYRHGFMSAGDMYYWGQGTQVTVSS | high polyreactivity
QVQLVESGGGLVQAGGSLRLSCAASGSTFYGYAMGWYRQAPGKERELVAVISRSGGSTYYADSVKGRFTISRDNAKNTVYLQMNILKPEDTAVYYCNARWSFSYTVWVDSYWGLDDYWGQGTQVTVSS | high polyreactivity
QVQLVESGGGLVQAGGSLRLSCAASGSTFYGYGMGWYRQAPGKERELVAAITGYGDTTYYADSVKGRFTISRDYAKNTVDLQMNSLKPEDTAVYYCNARWHAEYDYWGQGTQVTVSS | low polyreactivity
QVQLVESGGGLVQAGGSLRLSCAASGSTFYGYTMGWYRQAPGKERELVAVITSGGSTYYADSVKGRFTISRDNAKNTVYLQMNSLKPEDTAVYYCAKRYGYPAYGRPCRIGRTYDYWGQGTQVTVSS | low polyreactivity
